From patent US20050256058

Assays:
[1] = target: T1, Cbz-Ala-Ala-AAsn-CH═CH-CO-indoline
T1 chain: AAN

[2] = target: T2, Cbz-Ala-Ala-AAsn-CH═CH-CON(Bzl)2
T2 chain: AAN

[3] = target: T3, Cbz-Ala-Ala-AAsn-CH═CH-CON(CH3)Bzl
T3 chain: AAN

[4] = target: T4, Cbz-Ala-Ala-AAsn-CH═CH-CONHCH2CH2Ph
T4 chain: AAN

[5] = target: T5, Cbz-Ala-Ala-AAsn-CH═CH-COOEt
T5 chain: AAN

[6] = target: T6, PhPr-Leu-ALys-CH═CH-COOEt
T6 chain: LK

[7] = target: T7, PhPr-Leu-AOrn-CH═CH-COOEt
T7 chain: LX

[8] = target: T8, Cbz-Ala-Ala-AAsn-CH═CH-CON(Bzl)-1-CH2-Napth
T8 chain: AAN

[9] = target: T9, Cbz-Ala-Ala-AAsn-CH═CH-CON(Bzl)-2-CH2-Napth
T9 chain: AAN

B1: Caspase-6 (protein)
chain: AFYKREMFDPAEKYKMDHRRRGIALIFNHERFFWHLTLPERRGTCADRDNLTRRFSDLGFEVKCFNDLKAEELLLKIHEVSTVSHADADCFVCVFLSHGEGNHIYAYDAKIEIQTLTGLFKGDKCHSLVGKPKIFIIQACRGNQHDVPVIPLDVVDNQTEKLDTNITEVDAASVYTLPAGADFLMCYSVAEGYYSHRETVNGSWYIQDLCEMLGKYGSSLEFTELLTLVNRKVSQRRVDFCKDPSAIGKKQVPCFASMLTKKLHFFPKSN
[1]
  kobs/[I]: NI
[2]
  kobs/[I]: NI
[3]
  kobs/[I]: NI
[4]
  kobs/[I]: NI
[5]
  kobs/[I]: NI
[6]
  kobs/[I]: NI
[7]
  kobs/[I]: NI

B2: Papain (protein)
chain: IPEYVDWRQKGAVTPVKNQGSCGSCWAFSAVVTIEGIIKIRTGNLNEYSEQELLDCDRRSYGCNGGYPWSALQLVAQYGIHYRNTYPYEGVQRYCRSREKGPYAAKTDGVRQVQPYNEGALLYSIANQPVSVVLEAAGKDFQLYRGGIFVGPCGNKVDHAVAAVGYGPNYILIKNSWGTGWGENGYIRIKRGTGNSYGVCGLYTSSFYPVKN
[1]
  kobs/[I]: NI
[2]
  kobs/[I]: 1 M⁻¹ s⁻¹
[3]
  kobs/[I]: NI
[4]
  kobs/[I]: 12 M⁻¹ s⁻¹
[5]
  kobs/[I]: NI
[6]
  kobs/[I]: NI
[7]
  kobs/[I]: NI

B3: schistosome legumain SmAE (Schistosoma mansoni asparaginyl endopeptidase) (protein)
chain: VSDNNKWAVLVAGSNGYPNYRHQADVCHAYHVLRSKGIKPEHIITMMYDDIAYNLMNPFPGKLFNDYNHKDWYEGVVIDYRGKNVNSKTFLKVLKGDKSAGGKVLKSGKNDDVFIYFTDHGAPGLIAFPDDELYAKEFMSTLKYLHSHKRYSKLVIYIEANESGSMFQQILPSNLSIYATTAANSTECSYSTFCGDPTITTCLADLYSYNWIVDSQTHHLTQRTLDQQYKEVKRETDLSHVQRYGDTRMGKLYVSEFQGS
[8]
  kobs/[I]: 6180 M⁻¹ s⁻¹
[9]
  kobs/[I]: 6100 M⁻¹ s⁻¹
[2]
  kobs/[I]: 5800 M⁻¹ s⁻¹
[5]
  kobs/[I]: 17400 M⁻¹ s⁻¹

B4: calpain I from porcine erythrocytes (protein)
chain: MAEEVITPVYCTGVSAQVQKLRAKELGLGRHENAIKYLGQDYEQLRAHCLQSGSLFRDEAFPPVPQSLGFKELGPNSSKTYGVKWKRPTELFSNPQFIVDGATRTDICQGALGDCWLLAAIASLTLNDTLLHRVVPHGQSFQNGYAGIFHFQLWQFGEWVDVVVDDLLPTKDGKLVFVHSAQGNEFWSALLEKAYAKVNGSYEALSGGSTSEGFEDFTGGVTEWYELRKAPSDLYSIILKALERGSLLGCSIDISSVLDMEAVTFKKLVKGHAYSVTGAKQVNYQGQMVNLIRMRNPWGEVEWTGAWSDGSSEWNGVDPYQRDQLRVRMEDGEFWMSFRDFLREFTRLEICNLTPDALKSQRVRNWNTTLYEGTWRRGSTAGGCRNYPATFWVNPQFKIRLEETDDPEDDYGGRESGCSFVLALMQKHRRRERRFGRDMETIGFAVYEVPPELVGQPVHLKRDFFLANASRARSEQFINLREVSTRFRLPPGEYVVVPSTFEPNKEGDFVLRFFSEKKAGTQELDDQVQAILPDEQVLSEEEIDENFKALFRQLAGEDMEISVRELRTILNRIISKHKDLRTKGFSLESCRSMVNLMDRDGNGKLGLVEFNILWNRIRNYLSIFRKFDLDKSGSMSAYEMRMAIESAGFKLNKKLFELIITRYSEPDLAVDFDNFVCCLVRLETMFRFFKTLDTDLDGVVTFDLFKWLQLTMFA
[1]
  kobs/[I]: NI
[2]
  kobs/[I]: NI
[3]
  kobs/[I]: NI
[4]
  kobs/[I]: NI
[5]
  kobs/[I]: NI
[6]
  kobs/[I]: NI
[7]
  kobs/[I]: NI

B5: Caspase-3 (protein)
chain: SGISLDNSYKMDYPEMGLCIIINNKNFHKSTGMTSRSGTDVDAANLRETFRNLKYEVRNKNDLTREEIVELMRDVSKEDHSKRSSFVCVLLSHGEEGIIFGTNGPVDLKKITNFFRGDRCRSLTGKPKLFIIQACRGTELDCGIETDSGVDDDMACHKIPVEADFLYAYSTAPGYYSWRNSKDGSWFIQSLCAMLKQYADKLEFMHILTRVNRKVATEFESFSFDATFHAKKQIPCIVSMLTKELYFYH
[1]
  kobs/[I]: NI
[2]
  kobs/[I]: NI
[3]
  kobs/[I]: NI
[4]
  kobs/[I]: NI
[5]
  kobs/[I]: NI
[6]
  kobs/[I]: NI
[7]
  kobs/[I]: NI

B6: Caspase-8 (protein)
chain: SESQTLDKVYQMKSKPRGYCLIINNHNFAKAREKVPKLHSIRDRNGTHLDAGALTTTFEELHFEIKPHDDCTVEQIYEILKIYQLMDHSNMDCFICCILSHGDKGIIYGTDGQEAPIYELTSQFTGLKCPSLAGKPKVFFIQACQGDNYQKGIPVETDSEEQPYLEMDLSSPQTRYIPDEADFLLGMATVNNCVSYRNPAEGTWYIQSLCQSLRERCPRGDDILTILTEVNYEVSNKDDKKNMGKQMPQPTFTLRKKLVFPSD
[1]
  kobs/[I]: NI
[2]
  kobs/[I]: NI
[3]
  kobs/[I]: NI
[4]
  kobs/[I]: NI
[5]
  kobs/[I]: NI
[6]
  kobs/[I]: NI
[7]
  kobs/[I]: NI
